Reference: US20250320297A1 (SHANGHAI HENLIUS BIOTECH, published 2025)
Positions count from the first letter of the chain named. Names and notes keep the numbering of the source. Each block holds one binder with its values, some of them ahead of it.

How the values were obtained:
Assay in all cases: cell-based or functional assay
[1] = molecular target: T1, human PDL1 stably expressed on CHO cells (human, UniProt Q9NZQ7 19-290)
[2] = molecular target: T1, human PDL1 stably expressed on CHO cells; remark: listed apart in the source
[3] = molecular target: T1, human PDL1 stably expressed on CHO cells; remark: listed apart in the source
[4] = molecular target: T1, human PDL1 stably expressed on CHO cells; remark: listed apart in the source

T1 sequence (Q9NZQ7 19-290 limits assumed): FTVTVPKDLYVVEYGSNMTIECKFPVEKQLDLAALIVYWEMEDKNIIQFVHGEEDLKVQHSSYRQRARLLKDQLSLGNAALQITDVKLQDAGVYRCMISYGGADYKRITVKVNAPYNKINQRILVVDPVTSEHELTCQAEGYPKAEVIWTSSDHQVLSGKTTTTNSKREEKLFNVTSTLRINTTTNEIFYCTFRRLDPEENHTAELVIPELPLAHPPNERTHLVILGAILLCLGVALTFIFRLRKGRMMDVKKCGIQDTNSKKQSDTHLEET

B1: 2F9 VHH-Fc (antibody, human IgG1, V domains shown)
VH: QVQLVESGGGVVQPGRSLRLSCAASGGPFMSYAMGWFRQAPGKEREFVAAIRWSGISTFYADSVKGRFTISRDNSKNTLYLQMNSLRAEDTAVYYCAAAQTIVTVPENYEFDYWGQGTQVTVSS
EC50 (read off the curve); luminescence (RLU) of the NFAT reporter, PDL1 Blockade assay (CHO-PDL1) [top panel] [1]: ~2 nM

B3: 1E4 VHH-Fc (antibody, human IgG1, V domains shown)
VH: B1 VH with S54N
EC50 (read off the curve); luminescence (RLU) of the NFAT reporter, PDL1 Blockade assay (CHO-PDL1) [top panel] [1]: ~2 nM

B5: 1F6 VHH-Fc (antibody, human IgG1, V domains shown)
VH: B1 VH with I56K, N108S
EC50 (read off the curve); luminescence (RLU) of the NFAT reporter, PDL1 Blockade assay (CHO-PDL1) [top panel] [1]: ~2 nM

B7: 3D5 VHH-Fc (antibody, human IgG1, V domains shown)
VH: B1 VH with I56H, V103S
EC50 (read off the curve); luminescence (RLU) of the NFAT reporter, PDL1 Blockade assay (CHO-PDL1) [middle panel] [1]: ~1 nM

B8: 1H2 VHH-Fc (antibody, human IgG1, V domains shown)
VH: B1 VH with I56L, Q100P
EC50 (read off the curve); luminescence (RLU) of the NFAT reporter, PDL1 Blockade assay (CHO-PDL1) [top panel] [1]: ~2 nM

B10: 1G12 VHH-Fc (antibody, human IgG1, V domains shown)
VH: B1 VH with I56L, E110N
EC50 (read off the curve); luminescence (RLU) of the NFAT reporter, PDL1 Blockade assay (CHO-PDL1) [middle panel] [1]: ~1 nM

Second part, the binder after the results:

EC50 (read off the curve); luminescence (RLU) of the NFAT reporter, PDL1 Blockade assay (CHO-PDL1) [middle panel] [1]: ~2 nM
B2: 5D8 VHH-Fc (antibody, human IgG1, V domains shown)
VH: B1 VH with I56Q, E107S

EC50 (read off the curve); luminescence (RLU) of the NFAT reporter, PDL1 Blockade assay (CHO-PDL1) [middle panel] [1]: ~2 nM
B4: 5G10 VHH-Fc (antibody, human IgG1, V domains shown)
VH: B1 VH with I56A

EC50; NFAT luciferase reporter (RLU), whole cell PDL1/PD1 blocking assay [2]: 8.3 nM
B6: Humanized 10A4 GLEF VHH-Fc (antibody, human IgG1, V domains shown)
VH: B1 VH with Q1E, V11L, R16G, F37V, E44G, R45L, S54N, F111Y, D112H

EC50; NFAT luciferase reporter (RLU), whole cell PDL1/PD1 blocking assay [2]: 7.37 nM | EC50; NFAT luciferase reporter (RLU), whole cell PDL1/PD1 blocking assay; printed as 10A4 GLEF-N2S [3]: 0.824 nM | EC50 (read off the curve); luminescence (RLU) of the NFAT reporter, PDL1 Blockade assay (CHO-PDL1) [bottom panel] [1]: ~2 nM
B9: Humanized 10A4 GLEF-N2S VHH-Fc (antibody, human IgG1, V domains shown)
VH: B1 VH with Q1E, V11L, R16G, F37V, E44G, R45L, F111Y, D112H

EC50; NFAT luciferase reporter (RLU), CHO cells with human PDL1 co-incubated with Jurkat cells with human PD1 and NFAT reporter, blocking of PDL1/PD1 [4]: 0.242 nM | EC50; NFAT luciferase reporter (RLU), whole cell PDL1/PD1 blocking assay; printed as 10A4 Parental [2]: 3.79 nM | EC50 (read off the curve); luminescence (RLU) of the NFAT reporter, PDL1 Blockade assay (CHO-PDL1) [middle panel] [1]: ~1 nM
B11: 10A4 VHH-Fc (chimeric bivalent antibody) (antibody, human IgG1, V domains shown)
VH: QVKLEESGGGLVMAGGSLRLSCAASGGPFMSYAMGWFRQAPGKEREFVAAIRWNGISTFYADSVKGRFTVSRDNGKNMAFLQMNSLKPEDTAVYYCAAAQTIVTVPENYEYHYWGQGTQVTVSS
